Sequences and labels used below:
B1: mRNA-decapping enzyme 1A (Homo sapiens), Q9NPI6 (parent)
chain: MEALSRAGQEMSLAALKQHDPYITSIADLTGQVALYTFCPKANQWEKTDIEGTLFVYRRSASPYHGFTIVNRLNMHNLVEPVNKDLEFQLHEPFLLYRNASLSIYSIWFYDKNDCHRIAKLMADVVEEETRRSQQAARDKQSPSQANGCSDHRPIDILEMLSRAKDEYERNQMGDSNISSPGLQPSTQLSNLGSTETLEEMPSGSQDKSAPSGHKHLTVEELFGTSLPKEQPAVVGLDSEEMERLPGDASQKEPNSFLPFPFEQLGGAPQSETLGVPSAAHHSVQPEITTPVLITPASITQSNEKHAPTYTIPLSPVLSPTLPAEAPTAQVPPSLPRNSTMMQAVKTTPRQRSPLLNQPVPELSHASLIANQSPFRAPLNVTNTAGTSLPSVDLLQKLRLTPQHDQIQTQPLGKGAMVASFSPAAGQLATPESFIEPPSKTAAARVAASASLSNMVLAPLQSMQQNQDPEVFVQPKVLSSAIPVAGAPLVTATTTAVSSVLLAPSVFQQTVTRSSDLERKASSPSPLTIGTPESQRKPSIILSKSQLQDTLIHLIKNDSSFLSTLHEVYLQVLTKNKDNHNL
partner: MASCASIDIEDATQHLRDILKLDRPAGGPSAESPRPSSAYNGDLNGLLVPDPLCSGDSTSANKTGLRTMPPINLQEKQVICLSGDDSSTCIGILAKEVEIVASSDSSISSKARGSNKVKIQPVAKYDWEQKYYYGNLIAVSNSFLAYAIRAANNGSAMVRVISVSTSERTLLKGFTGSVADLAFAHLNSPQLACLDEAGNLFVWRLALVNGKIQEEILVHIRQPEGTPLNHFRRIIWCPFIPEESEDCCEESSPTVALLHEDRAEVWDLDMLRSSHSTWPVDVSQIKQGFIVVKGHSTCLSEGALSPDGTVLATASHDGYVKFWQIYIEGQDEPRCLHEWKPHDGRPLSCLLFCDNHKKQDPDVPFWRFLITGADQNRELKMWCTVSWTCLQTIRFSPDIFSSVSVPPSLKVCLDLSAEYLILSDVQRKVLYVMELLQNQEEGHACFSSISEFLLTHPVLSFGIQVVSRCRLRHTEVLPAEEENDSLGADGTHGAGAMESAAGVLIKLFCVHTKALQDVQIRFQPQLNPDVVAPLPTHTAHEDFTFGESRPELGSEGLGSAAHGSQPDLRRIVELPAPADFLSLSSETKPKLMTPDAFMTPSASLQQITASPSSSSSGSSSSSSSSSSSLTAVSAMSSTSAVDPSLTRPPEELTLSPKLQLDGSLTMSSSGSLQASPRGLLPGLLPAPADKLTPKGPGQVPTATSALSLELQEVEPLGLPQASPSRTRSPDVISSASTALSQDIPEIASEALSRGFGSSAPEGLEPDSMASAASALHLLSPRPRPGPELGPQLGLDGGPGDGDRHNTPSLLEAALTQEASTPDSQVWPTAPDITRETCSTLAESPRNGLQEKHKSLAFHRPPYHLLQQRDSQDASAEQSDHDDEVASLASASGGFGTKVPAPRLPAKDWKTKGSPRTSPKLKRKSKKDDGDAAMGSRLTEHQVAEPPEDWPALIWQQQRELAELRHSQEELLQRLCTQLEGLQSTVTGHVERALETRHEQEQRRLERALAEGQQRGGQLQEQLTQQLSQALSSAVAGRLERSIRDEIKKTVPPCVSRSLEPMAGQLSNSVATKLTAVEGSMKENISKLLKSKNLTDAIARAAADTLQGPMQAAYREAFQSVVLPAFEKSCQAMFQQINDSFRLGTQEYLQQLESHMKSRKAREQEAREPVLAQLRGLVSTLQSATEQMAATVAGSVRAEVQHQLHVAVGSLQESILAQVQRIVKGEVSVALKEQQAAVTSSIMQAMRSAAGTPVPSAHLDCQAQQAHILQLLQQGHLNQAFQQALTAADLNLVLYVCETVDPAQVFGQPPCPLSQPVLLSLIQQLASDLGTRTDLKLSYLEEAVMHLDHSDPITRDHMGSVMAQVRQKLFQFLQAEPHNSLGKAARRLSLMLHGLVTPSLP
B2: mRNA-decapping enzyme 1A (Homo sapiens), Q9NPI6 (parent)
chain: B1 chain

The variants in one assay derive from B1. To be noted: with edc4_human EDC4, Q6P2E9.
Consider I552S;I555R;L562E, for which the “effect of a mutation on the interaction” value is recorded as “disrupting interaction”.

L551R;I555S;F561R;L565S: the “effect of a mutation on the interaction” value was “disrupting interaction”.

For L554S;F561R;L565S, the “effect of a mutation on the interaction” value is reported as “disrupting interaction”.

Another assay covers variants of B2. The note with it: with dcp2_human DCP2, Q8IU60.
In the case of L551R;I555S;F561R;L565S, the “effect of a mutation on the interaction” value is “disrupting interaction”.

With L554S;F561R;L565S, the “effect of a mutation on the interaction” value is “disrupting interaction”.

I552S;I555R;L562E: the “effect of a mutation on the interaction” value is “disrupting interaction”.

The record behind these values is IntAct's records for PubMed 19966221.
